The text below walks through data of PMC9599728, “Polydopamine-Functionalized Copper Peroxide/ZIF-8 Nanoparticle-Based Fluorescence-Linked Immunosorbent Assay for the Sensitive Determination of Carcinoembryonic Antigen by Self-Supplied H2O2 Generatio”.

For this data set, the target named is carcinoembryonic antigen (CEA) (UniProt P06731 35-685). The data set is described as follows: sandwich FLISA (antibody capture, aptamer nanoparticle probe); CEA on anti-CEA antibody plate; linear 0.01-20 ng/mL, LOD 7.6 pg/mL (assay values, not affinity); CEA capture 37 C 1 h, aptamer probe room temperature 1 h; washes in PBS 10 mM pH 7.4; probe blocked with 1% BSA; read-out with 4 mM OPD in 10 mM HAc-NaAc pH 5.5, 3 h, 565 nm. Particulars: protein: commercial.
Chain of carcinoembryonic antigen (CEA) (P06731 35-685): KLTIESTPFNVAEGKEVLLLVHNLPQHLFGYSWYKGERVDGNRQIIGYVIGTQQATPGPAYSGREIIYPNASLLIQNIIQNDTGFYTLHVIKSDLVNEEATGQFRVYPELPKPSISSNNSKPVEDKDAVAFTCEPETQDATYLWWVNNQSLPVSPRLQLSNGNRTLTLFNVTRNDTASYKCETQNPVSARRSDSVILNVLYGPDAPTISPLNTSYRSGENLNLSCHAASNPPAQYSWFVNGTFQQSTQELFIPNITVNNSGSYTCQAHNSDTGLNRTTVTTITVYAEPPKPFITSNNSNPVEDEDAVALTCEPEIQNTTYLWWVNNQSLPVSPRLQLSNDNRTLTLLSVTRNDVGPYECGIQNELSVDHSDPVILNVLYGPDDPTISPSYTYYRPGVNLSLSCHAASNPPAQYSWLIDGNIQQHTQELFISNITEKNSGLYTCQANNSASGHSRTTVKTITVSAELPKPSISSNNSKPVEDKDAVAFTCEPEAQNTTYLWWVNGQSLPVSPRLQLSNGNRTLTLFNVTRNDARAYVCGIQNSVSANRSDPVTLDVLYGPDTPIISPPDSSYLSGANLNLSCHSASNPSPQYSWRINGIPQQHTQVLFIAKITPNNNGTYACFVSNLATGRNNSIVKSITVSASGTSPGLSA

B1: CEA aptamer (ssDNA)
DNA: TTTTATACCAGCTTATTCAATT
modifications: 5'-NH2; coupled by glutaraldehyde to CP/ZIF-8/PDA nanoparticles
As to B1, the binding result was “binds”.
